Data taken from the supplement of paper PMC7125110.
± gives the standard error. Fewer inactive variants are shown than the library holds.

B1: glmS ribozyme (parent)
chain: AUAAAAGCGCCAGAACUACAGAAAUGUAGUUGACGAGGAGGAGGUUUAUCGAAUUUUCGGCGGAUGCCUCCAAA

Key:
Conditions in all cases: with glucosamine-6-phosphate
[1] = variants of: B1; assay: self-cleavage kobs at 40 uM GlcN6P; higher = faster cleavage; RNA array
Procedure, shortened: (§1)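 Tiles of sequenced MiSeq chips were imaged over ~14 h at 37 °C. On them, barcoded ribozyme variants had been transcribed in situ by E. coli RNA polymerase and were tracked via a hybridised Cy3 probe while glucosamine-6-phosphate (40 μM to 10 mM) in HEPES/KCl/Mg(OAc)2 buffer flowed in. Per-tile medians, normalised to baseline and to non-cleaving reference variants, were fit to one- or two-exponential decays for kobs, and weighted Michaelis–Menten fits gave kcat and KM.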

[2] = variants of: B1; assay: self-cleavage kobs at 160 uM GlcN6P; higher = faster cleavage; RNA array
Procedure, shortened: as §1

[3] = variants of: B1; assay: self-cleavage kobs at 640 uM GlcN6P; higher = faster cleavage; RNA array
Procedure, shortened: as §1

[4] = variants of: B1; assay: self-cleavage kobs at 2500 uM GlcN6P; higher = faster cleavage; RNA array
Procedure, shortened: as §1

[5] = variants of: B1; assay: self-cleavage kobs at 10000 uM GlcN6P; higher = faster cleavage; RNA array
Procedure, shortened: as §1

Row | Variant | self-cleavage kobs at 40 uM GlcN6P [1] [s⁻¹] | self-cleavage kobs at 160 uM GlcN6P [2] [s⁻¹] | self-cleavage kobs at 640 uM GlcN6P [3] [s⁻¹] | self-cleavage kobs at 2500 uM GlcN6P [4] [s⁻¹] | self-cleavage kobs at 10000 uM GlcN6P [5] [s⁻¹]
1 | U47C A53G | 0.000125 ± 2.2e-05 | 0.000176 ± 5.7e-05 | 0.00114 ± 0.00018 | 0.00477 ± 0.0011 | 0.00419 ± 0.00092
2 | U46G A48U C68U | < 1e-05 | – | – | – | –
3 | G43C U69C | < 1e-05 | < 1e-05 | – | – | –
4 | U46A A48C | < 1e-05 | – | – | – | –
5 | G43C A48U G51C G63A C71U | < 1e-05 | – | – | – | < 1e-05
6 | G41C C61U | < 1e-05 | < 1e-05 | < 1e-05 | < 1e-05 | < 1e-05
7 | G41C U45G U57C G59A C61U | < 1e-05 | – | < 1e-05 | < 1e-05 | –
8 | A42G C71A | 0.000338 ± 7.5e-05 | 0.000606 ± 0.00021 | 0.00207 ± 0.00033 | 0.00316 ± 0.0013 | 0.0105 ± 0.003
9 | G43U A48G U65A G66U C70A | < 1e-05 | – | – | – | –
10 | G43U U49A G60A C68U | < 1e-05 | – | – | – | < 1e-05
11 | G44A A48U C67A | < 1e-05 | – | – | – | 0.000216 ± 5.2e-05
12 | U47A U54C C71U | 0.000577 ± 0.00018 | – | – | – | 0.0135 ± 0.0039
13 | G41C C68G | < 1e-05 | < 1e-05 | < 1e-05 | < 1e-05 | < 1e-05
14 | U46G G51C C67G | < 1e-05 | – | – | – | –
15 | U47C A53U U56A G59C | < 1e-05 | – | < 1e-05 | < 1e-05 | < 1e-05
16 | A42G U56G | 0.000474 ± 5.8e-05 | 0.00171 ± 0.00035 | 0.00411 ± 0.00062 | 0.0067 ± 0.0013 | 0.0334 ± 0.0059
17 | U46G U54C | 0.00019 ± 3.4e-05 | – | – | – | 0.00687 ± 0.0018
18 | U46C G62C | < 1e-05 | – | – | – | < 1e-05
19 | U46C A48G C50A C71G | < 1e-05 | – | – | – | –
20 | U45G G62A C70G C71G | < 1e-05 | – | – | – | –
21 | U45G U57C | < 1e-05 | < 1e-05 | – | 3.94e-05 ± 1.4e-05 | 7.89e-05 ± 9.7e-06
22 | G41U G63A | < 1e-05 | – | < 1e-05 | < 1e-05 | < 1e-05
23 | G41U U55G C68U C70U | < 1e-05 | – | – | – | –

Row | Variant | self-cleavage kobs at 40 uM GlcN6P [1] [s⁻¹] | self-cleavage kobs at 160 uM GlcN6P [2] [s⁻¹] | self-cleavage kobs at 640 uM GlcN6P [3] [s⁻¹] | self-cleavage kobs at 2500 uM GlcN6P [4] [s⁻¹] | self-cleavage kobs at 10000 uM GlcN6P [5] [s⁻¹]
24 | G43A C61A | < 1e-05 | < 1e-05 | < 1e-05 | – | –
25 | A42G G63U | < 1e-05 | < 1e-05 | < 1e-05 | < 1e-05 | –
26 | G43A G51U G63C A64G | < 1e-05 | – | < 1e-05 | < 1e-05 | –
27 | G43U G44A | < 1e-05 | < 1e-05 | < 1e-05 | < 1e-05 | < 1e-05
28 | G41C G43A C50G C67A U69C | < 1e-05 | – | – | – | –
29 | U46A C50G | < 1e-05 | – | – | < 1e-05 | < 1e-05
30 | U46A A52U | < 1e-05 | < 1e-05 | – | – | –
31 | U46G U47G G59A U65G | < 1e-05 | – | – | – | –
32 | G44A U56C G63A | < 1e-05 | – | – | – | < 1e-05
33 | U45G C61G | < 1e-05 | < 1e-05 | < 1e-05 | < 1e-05 | < 1e-05
34 | G43A C67G C68G | 5.46e-05 ± 1.7e-05 | – | 0.000155 ± 4.7e-05 | 6.83e-05 ± 1.7e-05 | 7.38e-05 ± 1.4e-05
35 | G43U C61U C68U | < 1e-05 | – | < 1e-05 | – | < 1e-05
36 | U46A G60C | < 1e-05 | < 1e-05 | < 1e-05 | < 1e-05 | < 1e-05
37 | G41A U69A | < 1e-05 | – | < 1e-05 | – | –
38 | A42G U69A | 0.000758 ± 0.00012 | 0.000231 ± 0.00011 | 0.00094 ± 0.00029 | 0.000947 ± 0.0003 | –
39 | U47A U55G | 0.000473 ± 8.1e-05 | 0.000805 ± 0.00018 | 0.00869 ± 0.0018 | 0.0105 ± 0.0022 | 0.0152 ± 0.0031
40 | U46G G60U | < 1e-05 | < 1e-05 | – | – | < 1e-05
41 | A48C A64G | < 1e-05 | < 1e-05 | – | – | 6.31e-05 ± 1.3e-05
42 | U45G C50A | < 1e-05 | – | – | – | –
43 | G43U G59C | < 1e-05 | < 1e-05 | < 1e-05 | < 1e-05 | < 1e-05
44 | G43U G59A | < 1e-05 | – | – | < 1e-05 | < 1e-05
45 | G44U A52G A53U | < 1e-05 | – | – | – | < 1e-05
46 | A42C G63A | < 1e-05 | < 1e-05 | < 1e-05 | – | < 1e-05
